# pKd: −log10 of the molar value. Several values for one entry are separate records, joined by “and”; a condition that tells them apart may be missing. Equal values may be shown once.
# What was measured:
# Assay in all cases: SPRi
# Conditions in all cases: 5' disulfide, aptamer on gold chip, 10 mM HEPES, 120 mM NaCl, 10 mM KCl, 5 mM MgCl2, pH 7.4, targets in PBS with 0.1% Tween, random-DNA signal subtracted, temperature …
# [1] = target: LDL particle (all LDL-P; ApoB100 lipoprotein) (UniProt P04114)
# [2] = target: SD-LDL (small dense LDL particle; ApoB100 lipoprotein) (UniProt P04114)
# HDL particle = test system: HDL particle
# [3] = target: LDL particle (all LDL-P; ApoB100 lipoprotein) (UniProt P04114); remark: listed apart in the source
# [4] = target: LF-LDL (LDL subfraction particle; ApoB100 lipoprotein) (UniProt P04114)
Sequence,pKd [1],pKd [2],pKd (HDL particle),pKd [3],pKd [4]
AACTACATGGTATGTGGTGAACTAAACCATTCTTGTCTCGCATTTTTCTCTTTTATATTATTTGACGTACAATGTACCC [LDL-A38],10.68 and 10.75,9.63,7.94,10.34,
AACTACATGGTATGTGGTGAACTAACCTTAATTTACCCTTGTTTTATCATTTCCATCATAGCTGACGTACAATGTACCC [LDL-A12],10.97 and 10.33,10.64,8.01,10.30,
AACTACATGGTATGTGGTGAACTACCTCGATTTTATATTATTTCGCTTACCAACAACTGCAGAGACGTACAATGTACCC [LDL-A1],10.67,9.52,8.08,10.27,10.49
AACTACATGGTATGTGGTGAACTGTCAGCTTCTTCTATATAATTCACCTTGCCTCTCGTTCCTGACGTACAATGTACCC [LDL-A2],10.82 and 11.29,,8.14,10.38,10.80
